Test results from EP1007561B1.

Biological target: opiate receptors of rat brain homogenate ([3H]-Naloxone binding sites, non-selective binding assay) (rat)
Test: displacement of 1.0 nM [3H]-Naloxone from rat brain homogenate, filtration; compound at 10 nM

In the case of “CCI-H (20% HSA•MPA-AEA3-Dyn A 2-17-NH2) (from UniProt P02768 25-609)”, the % INHIBITION AT 10 nM is reported as 1.28%.
